Article PMC2757176 (The Journal of biological chemistry, 2009)
Non-standard residues stand in square brackets, D forms with d. No end group written: not given here. *: point of attachment. Biotin = O=C1N[C@H]2[C@H](CS[C@H]2CCCCC(=O)*)N1; pY = N[C@@H](Cc1ccc(OP(=O)(O)O)cc1)C(=O)O

T1: PLC-γ1 SH2 N+C (aa 545 to 749) (human, UniProt P19174 545-749)
T1 sequence (looked up): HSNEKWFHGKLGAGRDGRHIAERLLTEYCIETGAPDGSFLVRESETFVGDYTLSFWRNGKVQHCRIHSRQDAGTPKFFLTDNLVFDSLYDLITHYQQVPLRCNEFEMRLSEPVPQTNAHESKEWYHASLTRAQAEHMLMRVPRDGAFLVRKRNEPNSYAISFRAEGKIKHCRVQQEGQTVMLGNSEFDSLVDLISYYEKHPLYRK

B1: LCK-SH3-SH2 (aa 58 to 230) (domain or fragment, human, UniProt P06239 58-230, looked up)
chain: ASPLQDNLVIALHSYEPSHDGDLGFEKGEQLRILEQSGEWWKAQSLTTGQEGFIPFNFVAKANSLEPEPWFFKNLSRKDAERQLLAPGNTHGSFLIRESESTAGSFSLSVRDFDQNQGEVVKHYKIRNLDNGGFYISPRITFPGLHELVRHYTNASDGLCTRLSRPCQTQKPQ
B2: EAT-2 127 peptide, biotinylated, phosphorylated (peptide)
peptide: Biotin-NSNSD[pY]VDVLP
B3: FYN-SH3-SH2 (aa 82 to 248) (domain or fragment)
chain: not shown

Legend:
Experiment in all cases: SPR
[1] = biological target: B3
[2] = biological target: B1
[3] = biological target: B2
[4] = biological target: T1, PLC-γ1 SH2 N+C (aa 545 to 749)

Row | Binder | Kd [1] | Kd [2] | also measured
1 | Biotin-HPPPPPGHRSQAPSHRPPPPGHRVQ [CD2-281-305 peptide, biotinylated] | ~4 µM | > 1000 µM | –
2 | B1 | – | – | fold weaker than FYN binding to human EAT-2 [3]: 10 fold
3 | B2 | – | – | Kd [4]: ~40 nM
4 | Biotin-HNPG[pY]LVVLP [LAT 132 peptide, biotinylated, phosphorylated] | – | – | Kd [4]: ~20 nM
5 | Biotin-QKGPPLPRPRVQPKPPHG [CD2-322 peptide, biotinylated] | ~4 µM | > 1000 µM | –
6 | Biotin-EFLTI[pY]EDVKD [CD244 ITSM 1 peptide, biotinylated, phosphorylated] | ~0.2 µM | ~2 µM | –
7 | B3 | – | – | fold weaker than FYN binding to the CD244 ITSM [3]: ~5 fold
